Target: VEGF165 (VEGF A165) (UniProt P15692-4 27-191)
Assay: electrochemical impedance spectroscopy (aptasensor); 10 pg/ml-1 ug/ml VEGF, 60 min; LOD 8.2 pg/ml (not a Kd); VEGF incubated 60 min (37 C in the time optimisation) on BSA-blocked aptamer/CME NP electrode, water wash; EIS in 0.1 M PBS pH 7.4 with 5 mM [Fe(CN)6]3-/4-
Settings: protein: commercial; chain copies: 2; hairpin

VEGF165 (VEGF A165), sequence (P15692 other isoform, or with tags, fused parts or gaps): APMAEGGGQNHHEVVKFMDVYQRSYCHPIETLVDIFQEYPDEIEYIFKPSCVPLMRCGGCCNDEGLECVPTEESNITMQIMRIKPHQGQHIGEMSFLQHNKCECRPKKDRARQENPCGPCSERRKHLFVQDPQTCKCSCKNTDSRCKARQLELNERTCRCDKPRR

Binder: AAAAAAAAAACCGTCTTCCAGACAAGAGTGCAGGGAAAAAGAAGACGG (structured_DNA, 5' carboxylic acid) [VEGF aptamer with 5' A10 spacer]
- binding result: binds

From paper PMC9124786, “A One-Step Electrochemical Aptasensor Based on Signal Amplification of Metallo Nanoenzyme Particles for Vascular Endothelial Growth Factor”
